Results: the supplement of paper PMC10567573

B1: MYBL2 (parent)
chain: VKKSCWTEEEDRIICEAHKVLGNR
B2: SETD8 (parent)
chain: GKQAPRKKAQGKTQQNRKLTDFYP

Variants of: B1
Assay: protein stability index of a GFP-peptide fusion (GPS, HEK-293T) (PSI 1-6); higher = more stable
Settings: c terminus: a fixed tail appended
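Note: lentivirally expressed fusions sorted by FACS into six bins by GFP to DsRed ratio, PSI derived from sequencing read proportions per bin multiplied by bin number.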

| Variant | protein stability index |
| --- | --- |
| V20G | 3.67 |
| V20H | 2.55 |
| V20N | 3.99 |
| V20R | 3.59 |
| V20Q | 4.5 |
| V20D | 4.37 |
| V20W | 2.04 |
| V20E | 4.03 |
| V20F | 2.86 |
| V20C | 3.84 |
| V20M | 3.15 |
| V20I | 2.75 |
| V20L | 3.15 |
| V20A | 3.51 |
| V20T | 3.34 |
| V20S | 3.55 |
| V20K | 3.67 |
| V20Y | 3.12 |
| V20P | 3.72 |
| I14Y | 3.23 |
| I14V | 3.71 |
| I14H | 4.29 |
| I14W | 3.12 |
| I14N | 3.28 |

| Variant | protein stability index |
| --- | --- |
| I14G | 2.86 |
| I14M | 3.29 |
| I14E | 4.24 |
| I14S | 4.11 |
| I14R | 3.7 |
| I14C | 3.3 |
| I14D | 3.69 |
| I14Q | 4 |
| I14L | 3.41 |
| I14P | 3.67 |
| I14A | 4.24 |
| I14F | 2.91 |
| I14T | 4.39 |
| I14K | 4.53 |
| A17D | 4.36 |
| A17N | 3.88 |
| A17Y | 2.39 |
| A17F | 2.65 |
| A17V | 2.37 |
| A17Q | 3.83 |
| A17R | 3.51 |
| A17W | 2.55 |
| A17K | 3.68 |
| A17E | 3.49 |

| Variant | protein stability index |
| --- | --- |
| A17C | 2.12 |
| A17L | 1.59 |
| A17P | 3.12 |
| A17H | 3.46 |
| A17T | 2.92 |
| A17S | 3.36 |
| A17I | 2.09 |
| A17M | 3.03 |
| A17G | 4.14 |
| E9Y | 2.16 |
| R24Q | 4.15 |
| R24G | 4.11 |
| R24D | 4.19 |
| R24L | 3.32 |
| R24C | 3.3 |
| R24K | 4.21 |
| R24E | 4.05 |
| R24Y | 3.06 |
| R24S | 3.63 |
| R24V | 3.47 |
| R24P | 3.7 |
| R24T | 3.95 |
| R24N | 3.59 |
| R24I | 2.69 |

| Variant | protein stability index |
| --- | --- |
| R24F | 2.4 |
| R24W | 1.86 |
| R24H | 3.49 |
| R24M | 2.86 |
| R24A | 3.42 |
| E10C | 2.27 |
| E10A | 2.38 |
| E10K | 2.99 |
| E10R | 2.65 |
| E10T | 2.47 |
| E10Q | 3.26 |
| E10M | 1.99 |
| E10Y | 2.28 |
| E10I | 2.39 |
| E10N | 3.21 |
| E10S | 2.96 |
| E10V | 2.13 |
| E10F | 1.99 |
| E10P | 2.99 |
| E10H | 3.08 |
| E10W | 1.78 |
| E10G | 3.15 |
| E10D | 3.1 |
| E10L | 2.06 |

| Variant | protein stability index |
| --- | --- |
| I13V | 4.55 |
| I13L | 3.06 |
| I13D | 4.37 |
| I13C | 2.77 |
| I13H | 3.29 |
| I13Y | 3.01 |
| I13R | 3.19 |
| I13K | 3.82 |
| I13F | 3 |
| I13E | 3.5 |
| I13M | 3.67 |
| I13P | 3.85 |
| I13W | 2.47 |
| I13Q | 4.24 |
| I13T | 3.74 |
| I13N | 3.46 |
| I13A | 4.41 |
| I13S | 4.32 |
| I13G | 4.41 |
| D11T | 2.83 |
| D11I | 1.71 |
| D11M | 2.12 |
| D11S | 2.8 |
| D11Y | 2.38 |

| Variant | protein stability index |
| --- | --- |
| D11L | 2.21 |
| D11G | 3.01 |
| D11E | 3.43 |
| D11K | 2.74 |
| D11N | 3.72 |
| D11V | 3.39 |
| D11H | 3.57 |
| D11P | 2.76 |
| D11C | 2.53 |
| D11A | 2.95 |
| D11W | 2.42 |
| D11Q | 3 |
| D11R | 2.85 |
| D11F | 1.59 |
| N23Y | 3.01 |
| N23V | 2.93 |
| N23I | 2.63 |
| N23Q | 2.95 |
| N23A | 3.08 |
| N23G | 2.57 |
| N23F | 2.21 |
| N23E | 3.96 |
| N23W | 2.59 |
| N23T | 3.41 |

| Variant | protein stability index |
| --- | --- |
| N23M | 2.1 |
| N23H | 3.71 |
| N23P | 3.77 |
| N23S | 2.9 |
| N23D | 3.64 |
| N23L | 2.35 |
| N23K | 2.59 |
| N23C | 3.23 |
| N23R | 3.64 |
| L21V | 3.35 |
| L21W | 3.33 |
| L21I | 3.15 |
| L21S | 3.3 |
| L21M | 3.79 |
| L21Y | 3.71 |
| L21G | 3.44 |
| L21F | 2.94 |
| L21C | 3.66 |
| L21E | 3.83 |
| L21P | 3.8 |
| L21T | 3.44 |
| L21N | 3.83 |
| L21A | 3.42 |
| L21K | 3.26 |

| Variant | protein stability index |
| --- | --- |
| L21D | 4.36 |
| L21Q | 3.64 |
| L21H | 3.53 |
| E16D | 3.66 |
| E16K | 3.08 |
| E16T | 2.72 |
| E16R | 3.13 |
| E16L | 1.83 |
| E16Y | 2.32 |
| E16I | 1.84 |
| E16N | 3.15 |
| E16A | 2.84 |
| E16H | 3.1 |
| E16G | 4 |
| E16V | 2.31 |
| E16M | 1.78 |
| E16Q | 3.14 |
| E16W | 2.39 |
| E16C | 1.94 |
| E16P | 3.54 |
| E16S | 3.06 |
| E16F | 1.69 |
| R12S | 3.25 |
| R12A | 3.29 |

| Variant | protein stability index |
| --- | --- |
| R12H | 3.55 |
| R12D | 3.15 |
| R12P | 3.38 |
| R12V | 3.28 |
| R12C | 2.17 |
| R12G | 3.58 |
| R12N | 3.7 |
| R12K | 4.05 |
| R12E | 3.48 |
| R12T | 3.2 |
| R12L | 2.87 |
| R12I | 3.38 |
| R12W | 2.22 |
| R12Q | 3.62 |
| R12Y | 3.16 |
| R12F | 3.1 |
| K19E | 4.27 |
| K19P | 3.28 |
| K19F | 2.19 |
| K19S | 4.02 |
| K19G | 3.67 |
| K19T | 3.44 |
| K19N | 3.41 |
| K19C | 3.3 |

| Variant | protein stability index |
| --- | --- |
| K19W | 1.91 |
| K19D | 3.86 |
| K19L | 2.69 |
| K19V | 3.5 |
| K19Y | 2.59 |
| K19M | 2.93 |
| K19Q | 4.09 |
| K19H | 2.99 |
| K19A | 3.21 |
| K19R | 3.23 |
| K19I | 2.03 |
| C15M | 2.87 |
| C15K | 3.47 |
| C15V | 3.85 |
| C15W | 2.59 |
| C15R | 3.36 |
| C15L | 3.82 |
| C15F | 2.79 |
| C15Y | 3.01 |
| C15G | 4.39 |
| C15H | 3.76 |
| C15T | 3.74 |
| C15A | 3.43 |
| C15S | 3.69 |

| Variant | protein stability index |
| --- | --- |
| C15P | 4.16 |
| C15Q | 3.85 |
| C15E | 3.94 |
| C15I | 3.47 |
| C15D | 4.16 |
| C15N | 3.65 |
| G22I | 2.58 |
| G22S | 2.7 |
| G22F | 2.54 |
| G22V | 2.86 |
| G22A | 3.17 |
| G22W | 2.28 |
| G22Y | 2.79 |
| G22L | 2.64 |
| G22H | 3.11 |
| G22K | 3.11 |
| G22C | 3.03 |
| G22M | 2.89 |
| G22R | 2.99 |
| G22D | 3.38 |
| G22P | 3.54 |
| G22E | 3.96 |
| G22T | 2.83 |
| G22N | 3.32 |

| Variant | protein stability index |
| --- | --- |
| G22Q | 1.97 |
| H18N | 3.88 |
| H18V | 2.2 |
| H18A | 3.47 |
| H18K | 3.73 |
| H18G | 3.2 |
| H18Y | 2.56 |
| H18D | 4.01 |
| H18W | 2.18 |
| H18T | 3.79 |
| H18Q | 3.35 |
| H18C | 1.8 |
| H18R | 2.69 |
| H18F | 2.63 |
| H18S | 3.81 |
| H18P | 4 |
| H18M | 2.73 |
| H18L | 2.45 |
| H18I | 2.91 |
| H18E | 3.83 |

Variants of: B2
Assay: as above
Settings: c terminus: a fixed tail appended

| Variant | protein stability index |
| --- | --- |
| G1P | 4.24 |
| G1N | 2.88 |
| G1L | 2.66 |
| G1M | 2.6 |
| G1K | 3.75 |
| G1A | 3.04 |
| G1V | 3.12 |
| G1Q | 3.8 |
| G1E | 3.79 |
| G1H | 3 |
| G1D | 2.68 |
| G1T | 3.2 |
| G1S | 3.17 |
| G1R | 2.94 |
| G1Y | 3.1 |
| G1C | 2.98 |
| G1I | 2.74 |
| G1F | 3.39 |
| K2L | 4.09 |
| K2M | 3.05 |
| K2C | 2.92 |
| K2W | 3.69 |
| K2R | 3.07 |
| K2V | 3.99 |
| K2G | 2.67 |

| Variant | protein stability index |
| --- | --- |
| K2A | 3.09 |
| K2T | 2.46 |
| K2Q | 3.4 |
| K2N | 3.11 |
| K2F | 3.34 |
| K2Y | 2.95 |
| Q3F | 2.67 |
| Q3R | 4.32 |
| Q3H | 3.8 |
| Q3K | 3.85 |
| Q3D | 3.41 |
| Q3V | 2.28 |
| Q3I | 3.33 |
| Q3Y | 3.58 |
| Q3A | 2.63 |
| Q3G | 3.38 |
| Q3P | 2.01 |
| Q3T | 2.93 |
| A4F | 3.05 |
| A4E | 3.04 |
| A4K | 3.73 |
| A4C | 3.34 |
| A4G | 3.46 |
| A4N | 3.23 |
| A4I | 3.09 |
